One block for each molecule: values may come before it.
Legend:
[1] = target: Saccharomyces cerevisiae var. boulardii mitochondrial aldehyde dehydrogenase Ald4p (Saccharomyces cerevisiae var. boulardii (NCYC 3264)) (UniProt P46367); assay: SEC; Sephacryl S-300, buffer G (50 mM Tris/HCl, 17 mM Tris-base, 150 mM NaCl, pH 7.4), 1 ml/min; 200 ul of 60 uM protein by the methods (legend: Ald4p ~20 uM, Ald6p ~60 uM); mass from calibration with standard proteins
[2] = target: the molecule itself; assay: as above
[3] = target: the molecule itself; assay: cross-linking; BS3 (50-800 uM) with 15 uM protein in 100 mM sodium phosphate pH 7.4, 30 C, 35 min; products on SDS/PAGE (10% gel)
[4] = target: the molecule itself; assay: SDS/PAGE of the untreated purified protein (SDS- and heat-resistant oligomers); purified protein without cross-linker on SDS/PAGE (10% gel); band not reduced by additional DTT (2 mM)

stoichiometry N [1]: 3
Molecule: Saccharomyces cerevisiae var. boulardii mitochondrial aldehyde dehydrogenase Ald4p (from UniProt P46367 25-519) (enzyme)

B1: Saccharomyces cerevisiae var. boulardii cytosolic aldehyde dehydrogenase Ald6p (wild-type) (enzyme, UniProt P54115 1-500, looked up)
chain: MTKLHFDTAEPVKITLPNGLTYEQPTGLFINNKFMKAQDGKTYPVEDPSTENTVCEVSSATTEDVEYAIECADRAFHDTEWATQDPRERGRLLSKLADELESQIDLVSSIEALDNGKTLALARGDVTIAINCLRDAAAYADKVNGRTINTGDGYMNFTTLEPVGVCGQIIPWNFPIMMLAWKIAPALAMGNVCILKPAAVTPLNALYFASLCKKVGIPAGVVNIVPGPGRTVGAALTNDPRIRKLAFTGSTEVGKSVAVDSSESNLKKITLELGGKSAHLVFDDANIKKTLPNLVNGIFKNAGQICSSGSRIYVQEGIYDELLAAFKAYLETEIKVGNPFDKANFQGAITNRQQFDTIMNYIDIGKKEGAKILTGGEKVGDKGYFIRPTVFYDVNEDMRIVKEEIFGPVVTVAKFKTLEEGVEMANSSEFGLGSGIETESLSTGLKVAKMLKAGTVWINTYNDFDSRVPFGGVKQSGYGREMGEEVYHAYTEVKAVRIKL
notes: Ald6p, cytosolic aldehyde dehydrogenase of S. cerevisiae var. boulardii NCYC 3264; differs from the S. cerevisiae S288c protein by valine for isoleucine at position 163; printed mass 54.4 kDa; Removal of the tag is not mentioned; also called cytosolic Ald6p; wild-type Ald6p; source: E. coli Rosetta (DE3), purified (cobalt agarose, dialysis)
stoichiometry N [2]: 4
stoichiometry N [3]: 2
stoichiometry N [4]: ~4
